Experimental data from patent US20210045419A1 (UNIVERSITY OF MANITOBA, published 2021).

Target: T1, bitter taste receptor T2R4 (UniProt Q9NYW5 1-299, limits assumed)
T1 sequence (looked up): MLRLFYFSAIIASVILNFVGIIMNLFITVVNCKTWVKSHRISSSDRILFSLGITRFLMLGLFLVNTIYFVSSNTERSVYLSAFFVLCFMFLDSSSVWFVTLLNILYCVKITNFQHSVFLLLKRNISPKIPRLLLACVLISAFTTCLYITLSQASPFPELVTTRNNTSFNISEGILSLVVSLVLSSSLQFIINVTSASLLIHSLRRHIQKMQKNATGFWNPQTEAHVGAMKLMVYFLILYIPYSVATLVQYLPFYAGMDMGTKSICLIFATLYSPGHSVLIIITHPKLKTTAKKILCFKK
Test: cell-based or functional assay

With AGDDAPRAVF [AGDDAPRAVF (SEQ ID No:5)] the “IC50, peptide and quinine (1 mM) competition calcium mobilization assay on T2R4-expressing HEK293T cells” value was 85 µM.
